Results on 35 sequences are retold here after the supplement of paper PMC12764529.

± gives the half width of the 95% confidence interval.

A short description of series [1]: folding stability dG unfold from trypsin proteolysis; higher = more stable. The method, boiled down: (§1)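 K50 was inferred by Bayesian fitting of sequencing counts obtained after protease digestion of designed mini-proteins. Unfolding free energy was derived by comparison with a sequence-predicted unfolded-state K50 and a shared folded-state K50, for each protease or both combined. The mini-proteins were under 80 residues, had no cysteine, were carried in a PA-tagged cDNA display construct, and were kept only if AlphaFold2 dimer inter-PAE exceeded 15.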

Series [2] can be described thus: folding stability dG unfold from chymotrypsin proteolysis; higher = more stable. The method, boiled down: as §1
Series [3] in a line: folding stability dG unfold (combined trypsin and chymotrypsin); higher = more stable. The essentials: as §1

Consider “SAGGSAGGSAGKPKVYVKPIVKKGDYVLYLSYYPEEKKIELWVDKFGDKPKRFVKEYPLESAGGSAGGSAGG [r11_738_TrMRF]”, for which the “folding stability dG unfold” value came to 0.866 ± 0.043 kcal/mol in series [1], 1.25 ± 0.07 kcal/mol in series [2] and 1.13 ± 0.068 kcal/mol in series [3].

For “SAGGSAGGSAGKPSVTILVLTDSPEDALALAKPLLEAGYEVKLELFRLPDDRYLALITVPSAGGSAGGSAGG [r11_677_TrMRF]”, the “folding stability dG unfold” value was 2.13 ± 0.041 kcal/mol in series [1], 3.36 ± 0.039 kcal/mol in series [2] and 2.92 ± 0.094 kcal/mol in series [3].

In the case of “SAGGSAGGSAGKPVLTLTLRLEDGTLVRIEFDLETEELTVRVLDLETGEEKEFTFKLPAPSAGGSAGGSAGG [r11_931_TrROS_Hall]”, the entries for the “folding stability dG unfold” value in series [1], in series [2] and in series [3] were 3.51 ± 0.22 kcal/mol, 4.07 ± 0.074 kcal/mol and 3.9 ± 0.14 kcal/mol, respectively.

Take “SAGGSAGGSAGKRYTFFIPVPPDEMTPEDLVDWIEKIFPDFKGKEIKVEVMPDGYVRIKIEYSAGGSAGGSA [r18_65_TrROS]”: the entries for the “folding stability dG unfold” value in series [1], in series [2] and in series [3] were 3.08 ± 0.069 kcal/mol, 3.89 ± 0.044 kcal/mol and 3.56 ± 0.097 kcal/mol, respectively.

As to “SAGGSAGGSAGKTYEIVEYNPETKKFLIRFEDGSTKEVEVKPGDKIEVPPGAKVEIVPLDSAGGSAGGSAGG [r17_295_TrROS_Hall]”, the “folding stability dG unfold” value in series [1] was 1.94 ± 0.069 kcal/mol; in series [2], 1.76 ± 0.1 kcal/mol; in series [3], 1.88 ± 0.14 kcal/mol.

For “SAGGSAGGSAGKVEITVEKNPETGLYTVRIKTEDGKEIEITVPKNMTLEELKKLAEELLKSAGGSAGGSAGG [r17_161_TrROS_Hall]”, the results for the “folding stability dG unfold” value in series [1], in series [2] and in series [3] were 4.43 ± 0.22 kcal/mol, 4.42 ± 0.11 kcal/mol and 4.42 ± 0.1 kcal/mol, respectively.

In the case of “SAGGSAGGSAGKVKLVEENGKLKLVVVDEKTKKVTVIEVPLENLDEILKLLPPGAKVYLLSAGGSAGGSAGG [r11_1006_TrROS_Hall]”, the entries for the “folding stability dG unfold” value in series [1], in series [2] and in series [3] were 1.05 ± 0.053 kcal/mol, 2.52 ± 0.049 kcal/mol and 2.12 ± 0.17 kcal/mol, respectively.

Turning to “SAGGSAGGSAGKYAIVEVNGKPVLVEFEPLPDDKVKVKIVFPDGSKVEIELKANEPIYVGSAGGSAGGSAGG [r11_525_TrMRF]”, the results for the “folding stability dG unfold” value in series [1], in series [2] and in series [3] were 1.75 ± 0.095 kcal/mol, 1.72 ± 0.076 kcal/mol and 1.83 ± 0.13 kcal/mol, respectively.

As for “SAGGSAGGSAGLDPDDPNYKIIPMTMEIKVEEYRMDPDGKMERQEQEHPIPILIIVPPGDSAGGSAGGSAGG [r17_523_TrROS]”, the “folding stability dG unfold” value was 0.933 ± 0.074 kcal/mol in series [1], -0.37 ± 0.28 kcal/mol in series [2] and 0.365 ± 0.22 kcal/mol in series [3].

For “SAGGSAGGSAGLEVPEGYEVKILDVNPETLPNGERVVSMTVLIIDPDGNPRKVEFRFYAPSAGGSAGGSAGG [r11_570_TrMRF]”, the “folding stability dG unfold” value in series [1] amounted to 2.47 ± 0.17 kcal/mol; in series [2] it was 2.1 ± 0.063 kcal/mol; in series [3], 2.27 ± 0.084 kcal/mol.

On to “SAGGSAGGSAGLFPGPENIPKVSITPFEVENPLDDYTVTLYRVDFPDLGLSLPAALVSKRSAGGSAGGSAGG [r17_31_TrMRF]”, for which the “folding stability dG unfold” value in series [1] turned out to be 0.698 ± 0.15 kcal/mol; in series [2], 1.6 ± 0.07 kcal/mol; in series [3] it was 1.36 ± 0.16 kcal/mol.

Take “SAGGSAGGSAGLKPGDEVLVISIEVETEIKLEEKDGKLTLETETKVKITITRVKLPEGAESAGGSAGGSAGG [r17_186_TrROS_Hall]”: the results for the “folding stability dG unfold” value in series [1], in series [2] and in series [3] were 3.79 ± 0.22 kcal/mol, 3.01 ± 0.21 kcal/mol and 3.82 ± 0.25 kcal/mol, respectively.

As for “SAGGSAGGSAGLKVIEADTLEEVLEAIKEAPKDEPLLLILRNPSTGVDSVLLFDGDKIVLGGSAGGSAGGSA [r18_407_TrMRF]”, the results for the “folding stability dG unfold” value in series [1], in series [2] and in series [3] were 1.09 ± 0.029 kcal/mol, 0.595 ± 0.09 kcal/mol and 0.909 ± 0.06 kcal/mol, respectively.

For the sequence “SAGGSAGGSAGLPVLRPLIIPGPSVLRILEVRLREDGSVEVISEETIPLPPPIPSPSELTSAGGSAGGSAGG [r11_843_TrMRF]”, the “folding stability dG unfold” value was 0.763 ± 0.038 kcal/mol in series [1], 0.994 ± 0.16 kcal/mol in series [2] and 0.905 ± 0.13 kcal/mol in series [3].

Turning to “SAGGSAGGSAGMEEIEIKFPENGKPLEIYRVPDGSAIIRNPGDGHYFQMDGNKIEIVGPLSAGGSAGGSAGG [r17_476_TrROS]”, the “folding stability dG unfold” value in series [1] is 0.861 ± 0.048 kcal/mol; in series [2], 0.353 ± 0.13 kcal/mol; in series [3], 0.703 ± 0.18 kcal/mol.

“SAGGSAGGSAGMELTLDEIRALLPAEEIEEVEVVEVDGKLVIRVKRKDGKEVRELVIEKDSAGGSAGGSAGG [r17_374_TrROS_Hall]”: the “folding stability dG unfold” value in series [1] came to 1.63 ± 0.065 kcal/mol; in series [2], 1.67 ± 0.054 kcal/mol; in series [3], 1.73 ± 0.13 kcal/mol.

Regarding “SAGGSAGGSAGMEPVYLLVKRTNPATGGREEALLAVPAEDLDAVREALEALPGVEEIEEISAGGSAGGSAGG [r17_438_TrMRF]”, the “folding stability dG unfold” value came out at 0.283 ± 0.05 kcal/mol in series [1], 1.18 ± 0.079 kcal/mol in series [2] and 0.886 ± 0.079 kcal/mol in series [3].

As to “SAGGSAGGSAGMETPVLYNVTVTPPDGSTTTYTVPEGLSEEEIRALLNVPASDTITFSPVSAGGSAGGSAGG [r11_340_JUSTAS]”, the “folding stability dG unfold” value in series [1] was 1.87 ± 0.042 kcal/mol; in series [2], 2.02 ± 0.029 kcal/mol; in series [3], 1.99 ± 0.033 kcal/mol.

With “SAGGSAGGSAGMEVFKSADGKRLLIRAKNGKVAEFDVETGELKFSKENLSPEDIEIVEVPSAGGSAGGSAGG [r17_174_TrROS_Hall]”, the “folding stability dG unfold” value was determined as 0.385 ± 0.2 kcal/mol in series [1], 1.05 ± 0.14 kcal/mol in series [2] and 0.72 ± 0.22 kcal/mol in series [3].

Take “SAGGSAGGSAGMIKKVKISRTSDGTVTRTTEYLETDKPGVPKVVTTEVETVTLAPSEPLFSAGGSAGGSAGG [r11_517_JUSTAS]”: the “folding stability dG unfold” value in series [1] is -1.11 ± 0.51 kcal/mol; in series [2] it was 0.911 ± 0.039 kcal/mol; in series [3], 0.507 ± 0.084 kcal/mol.

Turning to “SAGGSAGGSAGMINPKDVVEVSSSTDPNSSSGTLTVTLKDGKEITISYSSSSEAEAALLGSAGGSAGGSAGG [r11_339_JUSTAS]”, the “folding stability dG unfold” value was determined as 1.1 ± 0.061 kcal/mol in series [1], 1.52 ± 0.12 kcal/mol in series [2] and 1.44 ± 0.2 kcal/mol in series [3].

In the case of “SAGGSAGGSAGMIVFTLPDGGLALVLNIEYELEPDEDGNLIIRPRISLSIFPVPADFPILSAGGSAGGSAGG [r17_480_TrMRF]”, the entries for the “folding stability dG unfold” value in series [1], in series [2] and in series [3] were 3.2 ± 0.09 kcal/mol, 4.51 ± 0.068 kcal/mol and 4.19 ± 0.12 kcal/mol, respectively.

Consider “SAGGSAGGSAGMIVVKSKEEIEALKKAGYEIEVKEVTVYDPKTGKKKDKFLVIEIKPKKKSAGGSAGGSAGG [r11_168_TrROS_Hall]”, for which the “folding stability dG unfold” value was 1.25 ± 0.15 kcal/mol in series [1], 1.28 ± 0.06 kcal/mol in series [2] and 1.29 ± 0.17 kcal/mol in series [3].

As to “SAGGSAGGSAGMKITIDGKVAEIEEVEVDGKLYYFIRVEGRLYVFDVETGEIREISPEDLSAGGSAGGSAGG [r11_9_TrROS_Hall]”, the “folding stability dG unfold” value was found to be 3.14 ± 0.074 kcal/mol in series [1], 4.16 ± 0.033 kcal/mol in series [2] and 3.91 ± 0.054 kcal/mol in series [3].

Regarding “SAGGSAGGSAGMKITVTITTTTTVSVEPPESSAAVGPVVYRQTLTLNLSPEEAAALLKKSSAGGSAGGSAGG [r17_283_JUSTAS]”, the “folding stability dG unfold” value in series [1] turned out to be 1.17 ± 0.035 kcal/mol; in series [2] it was 1.16 ± 0.14 kcal/mol; in series [3] it was 1.25 ± 0.11 kcal/mol.

On to “SAGGSAGGSAGMKPGEKVLLVKIKIKNENGEEETILVEMSLEELKKLLEEENIEVEILELSAGGSAGGSAGG [r17_313_TrROS_Hall]”, for which the “folding stability dG unfold” value in series [1] came to 3.88 ± 0.17 kcal/mol; in series [2] it was 2.27 ± 0.039 kcal/mol; in series [3], 3.03 ± 0.1 kcal/mol.

As for “SAGGSAGGSAGMKPGQKEEVKIPIMGMIPVDGRTFMIRFDITVKAPGAIKIELDIIPGFPSAGGSAGGSAGG [r11_551_TrROS]”, the results for the “folding stability dG unfold” value in series [1], in series [2] and in series [3] were 3.26 ± 0.16 kcal/mol, 4.73 ± 0.29 kcal/mol and 4.23 ± 0.21 kcal/mol, respectively.

As for “SAGGSAGGSAGMKTVLSTKTEPSPEDLTVTTVTLGDKVYTIIYDPKTGKPLKVIPAGEFKSAGGSAGGSAGG [r11_851_JUSTAS]”, the “folding stability dG unfold” value in series [1] was -0.0393 ± 0.1 kcal/mol; in series [2], 1.25 ± 0.093 kcal/mol; in series [3], 0.857 ± 0.12 kcal/mol.

Turning to “SAGGSAGGSAGMKVTATSLNPASGTVTVKFSDGTTRTFSSVEALKAAIPEGVPIEIAPAVSAGGSAGGSAGG [r17_295_JUSTAS]”, the entries for the “folding stability dG unfold” value in series [1], in series [2] and in series [3] were 2.46 ± 0.13 kcal/mol, 2.297 ± 0.012 kcal/mol and 2.36 ± 0.051 kcal/mol, respectively.

With “SAGGSAGGSAGMKYKATIPLPDGTTLTYESEDPEKAIEEITKETGVPKSKITITPIPELESAGGSAGGSAGG [r17_169_JUSTAS]”, the “folding stability dG unfold” value was determined as 0.33 ± 0.03 kcal/mol in series [1], 0.709 ± 0.096 kcal/mol in series [2] and 0.598 ± 0.097 kcal/mol in series [3].

On to “SAGGSAGGSAGMLETIELPDGKRVRYDPVTGEWFVELDPELEEEVRERLDPDLPVRFEEVSAGGSAGGSAGG [r11_374_JUSTAS]”, for which the figures for the “folding stability dG unfold” value in series [1], in series [2] and in series [3] were 1.74 ± 0.081 kcal/mol, 1.54 ± 0.063 kcal/mol and 1.62 ± 0.057 kcal/mol, respectively.

With “SAGGSAGGSAGMLRVRAVIKRPGGELEELTDVTEEEVLAYAREKGWEIEELKVISPSEKPSAGGSAGGSAGG [r11_283_JUSTAS]”, the figures for the “folding stability dG unfold” value in series [1], in series [2] and in series [3] were 1.23 ± 0.054 kcal/mol, 1.91 ± 0.12 kcal/mol and 1.64 ± 0.13 kcal/mol, respectively.

As for “SAGGSAGGSAGMLVYRTVVTTEVLETETTSFPTPEGPYVTTTTVTVKTTVTVEKLTPELLSAGGSAGGSAGG [r11_24_JUSTAS]”, the “folding stability dG unfold” value in series [1] came to 2.67 ± 0.14 kcal/mol; in series [2], 2.61 ± 0.041 kcal/mol; in series [3], 2.75 ± 0.2 kcal/mol.

For the sequence “SAGGSAGGSAGMNPVVIETTETLPNGTVVRTTEIVDPSNPDKVVSTKTEISSVPSNAPLLSAGGSAGGSAGG [r17_299_JUSTAS]”, the figures for the “folding stability dG unfold” value in series [1], in series [2] and in series [3] were 0.342 ± 0.082 kcal/mol, 0.113 ± 0.043 kcal/mol and 0.222 ± 0.11 kcal/mol, respectively.

For the sequence “SAGGSAGGSAGMPIKTLKTTLVSVEKEPPGEGSYITTKSVTEFPDGSKSVTTTTVPASLLSAGGSAGGSAGG [r17_268_JUSTAS]”, the entries for the “folding stability dG unfold” value in series [1], in series [2] and in series [3] were -0.653 ± 0.59 kcal/mol, -0.228 ± 0.27 kcal/mol and -0.576 ± 0.44 kcal/mol, respectively.
